Laboratory results taken from a protein production outcome set (Wang et al. 2014).

Assay: label from the status in PepcDB records
With “KEAGSQIMKFEVQDASPTIATELNLVTGEQVYYIKRLRFIEDNAAQLEETWMSVARFPDLTVSHMQKSKFSYIENECGIKIIGTFETFSPTFPTPEIASILRISPRDPILKIQTQAVDSNSIPLDYSLLYSN” the protein production was “failed”. With “KEALEALVPVTIEVEVPFDLHRYVIGQKGSGIRKMMDEFEVNIHVPAPELQSDIIAITGLAANLDRAKAGLLERVKELQAEQEDRALRSFK” the protein production was “not failed”. In the case of “KESLQVTLYRDNHAWCPYCQKVWLWLEEKQIPYRIKKVTMFCYGEKEDWYKKLVPSGMLPALELDGRFYTESDDILIALEKAFGPLLWAMEDPLVLPLRKLERLLFRAWCNWLCYPAM”, the protein production is reported as “failed”. For “KGKSFIWIKRQLDPKVAEEVKALGLENFVFEKELKRHYPMGNLFAHVIGFTDIDGKGQEGLELSLEDSLYGEDGAEVVLRDRQGNIVDSLDSPRNKAPQNGKDIILSLD”, the protein production was “failed”. For “KGLDKWGIYVPESAAQSVKDAVFEAGAGAIGDYSQCSFEWQGTGQFLPHHNAQPVVGHPGQLERTEELRVEFVAPARLRTTLIDAIRAAHPYEEPAFDVVSMQSTQDLETAEGLGRVGTLPEPMRFGDFVQQVADALPETSWGIRAAGDPEQMVHTVAVSSGSGDSFLDAVAALGVDVYVTSDLRHHPADESRRAQGPLLIDTAHWASEFPWTYQVQELLAQEFAQLDVEVATLRTDPWNISAHPQLR”, the protein production was “not failed”. With “KHLSLTPELYKYLLDISLREHPALAALRKETSTMELANMQVAPEQAQFMQMLIRLTRAKKVLELGTFTGYSALAMSLALPDDGQVITCDINEGWTKHAHPYWREAKQEHKIKLRLGPALDTLHSLLNEGGEHQFDFIFIDADKTNYLNYYELALKLVTPKGLIAIDNIFWDGKVIDPNDTSGQTREIKKLNQVIKNDSRVFVSLLAIADGMFLVQPI” the protein production was “not failed”. In the case of “KIRSYTSIWSVEKVLYSINDFRLPFPITFTQMTWFVVSLFAVMILGNVPPLSMIEGAFLKYFGIPVAFTWFMSTKTFDGKKPYGFLKSVIAYALRPKLTYAGKKVTLGRNQPQEAITAVRSEFY”, the protein production is reported as “failed”. In the case of “KITRLTTYRLPPRWMFLKVETDEGVTGWGEPVIEGRARTVEAAVHELSDYLIGQDPSRINDLWQTMYRAGFYRGGPILMSAIAGIDQALWDIKGKVLGVPVYELLGGLVRDKMRTYSWVGGDRPADVIAGMKALQAGGFDHFKLNGCEEMGIIDTSRAVDAAVARVAEIRSAFGNTVEFGLDFHGRVSAPMAKVLIKELEPYRPLFIEEPVLAEQAETYARLAAHTHLPIAAGERMFSRFDFKRVLEAGGVSILQPDLSHAGGITECVKIAAMAEAYDVALAPHCPLGPIALAACLHVDFVSWNATLQEQSMGIHYNKGAELLDYVRNKADFALEGGYIRPPRLPGLGVDIDEALVIERSKEAPDWRNPVWRHADGSVAEW”, the protein production is reported as “not failed”. With “KKISSTAVIELALDLATSLNTKDRFDRLLDTVRKTITCDAVALLSYHGDVLKPIALQGLSRDTLGRRFYVEEHPRFLALCQSKSPIRFAADSPLPDPYDGLLIDREGDLPVHSCMGLPLYYDDKLLGLLTIDSLTPHDFEDIDVRMLEVISAIAAATLNTAFLLDQLESRADHSQRVVAELTEEAWKRDGGE” the protein production was “failed”. In the case of “KKPKHHVLSHDIIPASKPIAEKLQIQPESPVVELKRILYNDDQPLTFEVTHYPLDLFPGIDTFIADGVSMHDILKQQYKVVPTHNTKLLNVVYAQQEESKYLDCDIGDALFEIDKTAFTSNDQPIYCSLFLMHT”, the protein production is reported as “not failed”. For “KKSKYMTPMQQKLNEVYEAVKNYTDKRGRRLSAIFLRLPSRSELPDYYLTIKKPMDMEKIRSHMMANKYQDIDSMVEDFVMMFNNACTYNEPESLIYKDALVLHKVLLETRRD”, the protein production was “not failed”. In the case of “KLLAITSCPNGIAHTYMAAENLQKAADRLGVSIKVETQGGIGVENKLTEEEIREADAIIIAADRSVNKDRFIGKKLLSVGVQDGIRKPEELIQKALNGDIPVY”, the protein production is reported as “not failed”. For “KQLGPHTYLVSGRMEIDDVNERFGLSLPESDDYLTVAGFILNSHQNIPQANEVVEIAPYTFTILRSSSTKIELVKMSIDD”, the protein production was “not failed”. With “KRFEFVGWGSRQLIEFLHSLGKDTSEMISRYDVSDTIAKYISKEGLLDPSNKKKVVCDKRLVLLFGTRTIFRMKVYDLLEKHYKENQD” the protein production was “not failed”. With “KRPGNILIGTLPVGLDFPTRIVAEIVDAPSLTIEEIMRKAKYYLREGADIIDIGMESGKTNVEFLESVLPEIKEKINAPLSLDTLNPKEIEAGEKEVDLILSVDFGTVEEILPSKPVVLIPTNMKEGKFIEDPIGRAKALEKLKEKALNLGYKGLILDPILEHYPNFSRSLVAFYLYRMRNPQDILLAGVGNITEMMDADSVGLNALLASIAGELKISLLLTTEVSPKATGSVRELKRGIDMVLL” the protein production was “failed”.
